We go through 2 molecules from article PMC8038991, “R-catcher, a potent molecular tool to unveil the arginylome” (Cellular and Molecular Life Sciences: CMLS, 2021).

Experiment in all cases: ITC; protein 0.05 mM, 4-mer peptide 1 mM as injectant, B buffer (50 mM Tris-HCl pH 7.5, 200 mM NaCl), 25 °C, Microcal Auto-ITC200; single site-binding model
Assay [1] addresses purified wild type ZZ fragment p62 (122-175) of the ITC table (Fig. 3b) (human) (UniProt Q13501).
In assay [2] the target is purified N132D ZZ fragment p62 (122-175) of the ITC table (Fig. 3b) (human) (UniProt Q13501).
Assay [3] deals with GST-ZZ_(122-175), wild type, bacterially expressed (human) (UniProt Q13501).

What is called Kd is the constant that tells how readily two partners part at equilibrium. For YIFS [YIFS tetrapeptide (Nt-Tyr)], the results for the Kd in assay [1], in assay [2] and in assay [3] were 20.7 µM, 107 µM and 16.1 µM, respectively.

Consider RIFS [RIFS tetrapeptide (Nt-Arg)], for which the results for the Kd in assay [1], in assay [2] and in assay [3] were 6.9 µM, 2.85 µM and 4.4 µM, respectively.
